Test results reported in US6808893 (Johns Hopkins, dated 2004).

B5: myc-tagged full-length GTRAP4-48 (other)
chain: MSIRLPHSIDRSASKKQSHLSSPIASWLSSLSSLGDSTPERTSPSHHRQPSDTSETTAGLVQRCVIIQKDQHGFGFTVSGDRIVLVQSVRPGGAAMKAGVKEGDRIIKVNGTMVTNSSHLEVVKLIKSGAYAALTLLGSSPPSVGVSGLQQNPSVAGVLRVNPIIPPPPPPPPLPPPQHITGPKPLQDPEVQKHATQILWNMLRQEEEELQDILPPCGETSQRTCEGRLSVDSQEADSGLDSGTERFPSISESLMNRNSVLSDPGLDSPQTSPVILARVAQHHRRQGSDAALLPLNHQGIDQSPKPLIIGPEEDYDPGYFNNESDIIFQDLEKLKSHPAYLVVFLRYILSQADPGPLLFYLCSEVYQQTNPKDSRSLGKDIWNIFLEKNAPLRVKIPEMLQAEIDLRLRNNEDPRNVLCEAQEAVMLEIQEQINDYRSKRTLGLGSLYGENDLLGLDGDPLRERQMAEKQLAALGDILSKYEEDRSAPMDFAVNTFMSHAGIRLRESRSSCTAEKTQSAPDKDKWLPFFPKTKKQSSNSKKEKDALEDKKRNPILRYIGKPKSSSQSIKPGNVRNIIQHFENSHQYDVPEPGTQRLSTGSFPEDLLESDSSRSEIRLGRSGSLKGREEMKRSRKAENVPRPRSDVDMDAAAEAARLHQSASSSASSLSTRSLENPTPPFTPKMGRRSIESPNLGFCTDVILPHLLEDDLGQLSDLEPEPEVQNWQHTVGKDVVANLTQREIDRQEVINELFVTEASHLRTLRVLDLIFYQRMRKENLMPREELARLFPNLPELIEIHNSWCEAMKKLREEGPIIRDISDPMLARFDGPAREELQQVAAQFCSYQSVALELIRTKQRKESRFQLFMQEAESHPQCRRLQLRDLIVSEMQRLTKYPLLLENIIKHTEGGTSEHEKLCRARDQCREILKFVNEAVKQTENRHRLEGYQKRLDATALERASNPLAAEFKSLDLTTRKMIHEGPLTWRISKDKTLDLQVLLLEDLVVLLQRQEERLLLKCHSKTAVGSSDSKQTFSPVLKLNAVLIRSVATDKRAFFIICTSELGPPQIYELVALTSSDKNIWMELLEEAVQNATKHPGAAPIPIHPSPPGSQEPAYQGSTSSRVEINDSEVYHTEKEPKKLPEGPGPEQRVQDKQLIAQGEPVQEEDEEELRTLPRAPPSLDGENRGIRTRDPVLLALTGPLLMEGLADAALEDVENLRHLILWSLLPGHTVKTQAAGEPEDDLTPTPSVVSITSHPWDPGSPGQAPTISDSTRLARPEGSQPEGEDVAVSSLAHLPPRTRSSGVWDSPELDRNPAAEAASTEPAASYKVVRKVSLLPGGGVGAAKVAGSNAIPDSGQSESELSEVEGGAQATGNCFYVSMPAGPLDSSTEPTGTPPSPSQCHSLPAWPTEPQPYRGVRGGQCSSLVRRDVDVIFHTIEQLTIKLHRLKDMELAHRELLKSLGGESSGGTTPVGSFHTEAARWTDYSLSPPAKEALASDSQNGQEQGSCPEEGSDIALEDSATDTAVSPGP
notes: tested from solubilized cell extract; also called myc-tagged GTRAP4-48; not shown: myc tag of the myc-tagged pRK5 vector

Experiments:
[1] = target: T1, GLT-1 glutamate transporter (rat, UniProt P31596 1-573); test: co-immunoprecipitation from rat brain extract, Western blotting
T1 construct: whole, on cells; Native protein in solubilized rat brain
T1 sequence (P31596 whole entry): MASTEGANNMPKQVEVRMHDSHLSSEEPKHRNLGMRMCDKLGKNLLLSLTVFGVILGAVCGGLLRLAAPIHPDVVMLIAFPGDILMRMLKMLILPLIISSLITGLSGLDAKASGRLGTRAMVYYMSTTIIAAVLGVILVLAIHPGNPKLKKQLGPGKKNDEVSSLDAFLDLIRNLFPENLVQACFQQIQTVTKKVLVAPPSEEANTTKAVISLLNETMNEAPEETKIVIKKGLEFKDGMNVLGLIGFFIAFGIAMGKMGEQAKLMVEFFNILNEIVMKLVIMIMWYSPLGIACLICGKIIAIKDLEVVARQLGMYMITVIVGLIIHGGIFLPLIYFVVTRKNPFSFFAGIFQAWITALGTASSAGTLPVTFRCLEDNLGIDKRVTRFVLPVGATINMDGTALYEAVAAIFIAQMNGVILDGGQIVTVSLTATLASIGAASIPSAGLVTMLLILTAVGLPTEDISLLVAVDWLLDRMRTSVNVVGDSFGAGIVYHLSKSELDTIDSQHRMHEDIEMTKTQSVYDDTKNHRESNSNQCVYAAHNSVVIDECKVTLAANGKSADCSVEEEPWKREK

[2] = target: T2, GLAST glutamate transporter (rat, UniProt P24942 1-543); test: as above
T2 construct: whole, on cells; Native protein in solubilized rat brain
T2 sequence (looked up): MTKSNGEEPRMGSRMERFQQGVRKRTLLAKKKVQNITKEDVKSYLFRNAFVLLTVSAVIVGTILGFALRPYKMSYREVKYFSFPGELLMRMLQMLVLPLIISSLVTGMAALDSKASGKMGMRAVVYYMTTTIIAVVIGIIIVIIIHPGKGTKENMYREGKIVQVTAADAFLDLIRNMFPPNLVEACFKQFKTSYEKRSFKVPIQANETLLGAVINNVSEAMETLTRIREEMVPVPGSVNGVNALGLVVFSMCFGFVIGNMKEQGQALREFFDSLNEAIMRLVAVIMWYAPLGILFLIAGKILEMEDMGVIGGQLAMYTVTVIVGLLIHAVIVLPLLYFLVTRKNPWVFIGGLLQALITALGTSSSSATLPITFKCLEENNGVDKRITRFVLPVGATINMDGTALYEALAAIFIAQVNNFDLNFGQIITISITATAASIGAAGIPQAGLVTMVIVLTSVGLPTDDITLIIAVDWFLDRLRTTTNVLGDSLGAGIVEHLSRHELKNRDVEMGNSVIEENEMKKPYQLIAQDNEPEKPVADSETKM

[3] = target: T3, EAAT4, full-length glutamate transporter (rat, UniProt O35921 1-561); test: as above
T3 construct: whole, on cells; tested from detergent lysates; also called rEAAT4; rat EAAT4
T3 sequence (looked up): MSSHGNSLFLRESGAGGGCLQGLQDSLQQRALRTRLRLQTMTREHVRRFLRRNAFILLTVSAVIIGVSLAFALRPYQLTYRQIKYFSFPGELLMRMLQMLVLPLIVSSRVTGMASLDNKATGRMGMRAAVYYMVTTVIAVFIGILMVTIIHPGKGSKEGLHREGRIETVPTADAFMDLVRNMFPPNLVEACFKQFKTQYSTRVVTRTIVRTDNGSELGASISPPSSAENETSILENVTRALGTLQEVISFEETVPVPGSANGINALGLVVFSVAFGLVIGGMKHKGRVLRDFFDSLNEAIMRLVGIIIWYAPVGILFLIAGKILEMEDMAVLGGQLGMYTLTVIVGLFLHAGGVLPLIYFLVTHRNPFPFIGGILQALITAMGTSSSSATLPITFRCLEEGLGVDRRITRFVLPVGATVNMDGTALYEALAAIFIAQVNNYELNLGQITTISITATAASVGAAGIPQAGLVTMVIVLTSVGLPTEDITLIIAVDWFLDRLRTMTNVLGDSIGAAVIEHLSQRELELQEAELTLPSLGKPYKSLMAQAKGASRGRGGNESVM

[4] = target: the molecule itself; test: immunoblot of tissue homogenates and purified protein
[5] = target: T4, truncated EAAC1 lacking the interacting carboxy-terminal domain (lacking the last 93 amino acids) (UniProt P51907 1-430); test: co-immunoprecipitation from transfected HEK293 cells
T4 construct: domain: EAAC1 lacking the last 93 amino acids
T4 sequence (looked up): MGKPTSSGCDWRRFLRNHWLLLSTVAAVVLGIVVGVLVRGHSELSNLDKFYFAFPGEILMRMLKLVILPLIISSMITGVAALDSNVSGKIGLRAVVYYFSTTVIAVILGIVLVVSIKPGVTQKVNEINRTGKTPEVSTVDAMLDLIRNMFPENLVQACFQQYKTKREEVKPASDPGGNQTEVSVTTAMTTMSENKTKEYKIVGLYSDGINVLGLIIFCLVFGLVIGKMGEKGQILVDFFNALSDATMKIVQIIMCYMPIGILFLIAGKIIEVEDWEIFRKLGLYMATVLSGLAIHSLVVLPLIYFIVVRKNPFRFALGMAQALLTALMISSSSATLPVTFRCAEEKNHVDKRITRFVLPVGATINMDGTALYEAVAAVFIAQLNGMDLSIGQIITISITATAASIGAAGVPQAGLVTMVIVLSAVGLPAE
Procedure: (§1) Immunoprecipitation experiments were performed to test if EAAC1 and GTRAP3-18 interact in vivo. This was first examined in transfected HEK293 cells using amino-terminus c-myc tagged GTRAP3-18. EAAC1 is co-immunoprecipitated with c-myc-GTRAP3-18 in the cell extract prepared from co-expression cells but not from EAAC1 or c-myc-GTRAP3-18 single expression cells. […] This interaction was specific, since EAAT4, another neuronal glutamate transporter subtype, is not immunoprecipitated with c-myc-GTRAP3-18. Identical results are obtained using COS-7 and C6 glioma cell lines.

[6] = target: T3, EAAT4, full-length glutamate transporter; test: as above
Procedure: as §1

[7] = target: T5, GST (glutathione S-transferase) alone (UniProt P08515 1-218 = GST); test: cell-free binding to protein immobilized on glutathione-Sepharose
T5 construct: Control, immobilized on glutathione-Sepharose
T5 sequence (P08515 whole entry): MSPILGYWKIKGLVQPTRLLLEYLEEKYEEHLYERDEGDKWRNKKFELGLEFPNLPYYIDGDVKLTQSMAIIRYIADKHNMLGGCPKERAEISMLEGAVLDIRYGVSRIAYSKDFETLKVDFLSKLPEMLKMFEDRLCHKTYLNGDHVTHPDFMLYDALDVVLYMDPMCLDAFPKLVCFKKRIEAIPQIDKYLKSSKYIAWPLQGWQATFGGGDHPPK
Procedure: The interaction of GTRAP3-18 with EAAC1 was examined using in vitro and in vivo methods. For in vitro cell-free binding, EAAC1 was expressed as a fusion protein with glutathione S-transferase (GST), and GTRAP3-18 was produced and labeled with [^35S]-methionine by in vitro transcription and translation. Purified GST or GST-EAAC 1 fusion proteins immobilized on glutathione-Sepharose were incubated with [^35S]-labeled GTRAP3-18 protein. GTRAP3-18 specifically binds to immobilized GST-EAAC1 but not to GST alone, indicating an in vitro interaction.

[8] = target: B5; test: in vitro binding assay, bead-linked GST-EAAT4 with solubilized HEK 293T extract
Procedure: (§2) GTRAP4-41 and 4-48 Immunoprecipitation with Fusion Proteins. Full-length EAAT4 was subcloned into the EcoR I site of the GST-fusion vector pGEX-6P-1 (Pharmacia). Synthesis of recombinant proteins in BL21 cells (Novagen) was induced by 0.1 mM isopropyl b-D-thiogalactoside for 2 hrs at 30° C. and prepared as a crude bacterial lysate by mild sonication in ice-cold 1 C PBS and solubilization in 1% Triton X-100. Cell debris was removed by centrifugation at 7,000 g and the cleared bacterial lysate applied to glutathione-Sepharose-4B (Pharmacia). […] The cellular lysate was incubated with GST or GST-EAAT4 immobilized on glutathione-Sepharose-4B, and washed to remove non-specifically bound proteins. Specifically bound proteins were eluted with 3×SDS loading buffer and analyzed by immunoblotting using an anti-c-myc antibody. Bands were visualized by HRP-conjugated secondary antibodies and ECL chemiluminescence (Amersham).
(§3) The biochemical interaction between GTRAP4-41 or GTRAP4-48 and EAAT4 was confirmed using an in vitro binding assay. […] The solubilized cell extracts were then mixed with bead-linked GST-EAAT4 or GST alone and the bound proteins were eluted. GTRAP4-41 and GTRAP4-48 were specifically retained by the GST-EAAT4 fusion protein, but not by GST alone.

[9] = target: T6, myc-tagged full-length GTRAP4-41 (rat, UniProt Q9QWN8 2-2388); test: as above
T6 construct: tested from solubilized cell extract; also called myc-tagged GTRAP4-41; not shown: myc tag of the myc-tagged pRK5 vector
T6 sequence (Q9QWN8 other isoform, or with tags, fused parts or gaps): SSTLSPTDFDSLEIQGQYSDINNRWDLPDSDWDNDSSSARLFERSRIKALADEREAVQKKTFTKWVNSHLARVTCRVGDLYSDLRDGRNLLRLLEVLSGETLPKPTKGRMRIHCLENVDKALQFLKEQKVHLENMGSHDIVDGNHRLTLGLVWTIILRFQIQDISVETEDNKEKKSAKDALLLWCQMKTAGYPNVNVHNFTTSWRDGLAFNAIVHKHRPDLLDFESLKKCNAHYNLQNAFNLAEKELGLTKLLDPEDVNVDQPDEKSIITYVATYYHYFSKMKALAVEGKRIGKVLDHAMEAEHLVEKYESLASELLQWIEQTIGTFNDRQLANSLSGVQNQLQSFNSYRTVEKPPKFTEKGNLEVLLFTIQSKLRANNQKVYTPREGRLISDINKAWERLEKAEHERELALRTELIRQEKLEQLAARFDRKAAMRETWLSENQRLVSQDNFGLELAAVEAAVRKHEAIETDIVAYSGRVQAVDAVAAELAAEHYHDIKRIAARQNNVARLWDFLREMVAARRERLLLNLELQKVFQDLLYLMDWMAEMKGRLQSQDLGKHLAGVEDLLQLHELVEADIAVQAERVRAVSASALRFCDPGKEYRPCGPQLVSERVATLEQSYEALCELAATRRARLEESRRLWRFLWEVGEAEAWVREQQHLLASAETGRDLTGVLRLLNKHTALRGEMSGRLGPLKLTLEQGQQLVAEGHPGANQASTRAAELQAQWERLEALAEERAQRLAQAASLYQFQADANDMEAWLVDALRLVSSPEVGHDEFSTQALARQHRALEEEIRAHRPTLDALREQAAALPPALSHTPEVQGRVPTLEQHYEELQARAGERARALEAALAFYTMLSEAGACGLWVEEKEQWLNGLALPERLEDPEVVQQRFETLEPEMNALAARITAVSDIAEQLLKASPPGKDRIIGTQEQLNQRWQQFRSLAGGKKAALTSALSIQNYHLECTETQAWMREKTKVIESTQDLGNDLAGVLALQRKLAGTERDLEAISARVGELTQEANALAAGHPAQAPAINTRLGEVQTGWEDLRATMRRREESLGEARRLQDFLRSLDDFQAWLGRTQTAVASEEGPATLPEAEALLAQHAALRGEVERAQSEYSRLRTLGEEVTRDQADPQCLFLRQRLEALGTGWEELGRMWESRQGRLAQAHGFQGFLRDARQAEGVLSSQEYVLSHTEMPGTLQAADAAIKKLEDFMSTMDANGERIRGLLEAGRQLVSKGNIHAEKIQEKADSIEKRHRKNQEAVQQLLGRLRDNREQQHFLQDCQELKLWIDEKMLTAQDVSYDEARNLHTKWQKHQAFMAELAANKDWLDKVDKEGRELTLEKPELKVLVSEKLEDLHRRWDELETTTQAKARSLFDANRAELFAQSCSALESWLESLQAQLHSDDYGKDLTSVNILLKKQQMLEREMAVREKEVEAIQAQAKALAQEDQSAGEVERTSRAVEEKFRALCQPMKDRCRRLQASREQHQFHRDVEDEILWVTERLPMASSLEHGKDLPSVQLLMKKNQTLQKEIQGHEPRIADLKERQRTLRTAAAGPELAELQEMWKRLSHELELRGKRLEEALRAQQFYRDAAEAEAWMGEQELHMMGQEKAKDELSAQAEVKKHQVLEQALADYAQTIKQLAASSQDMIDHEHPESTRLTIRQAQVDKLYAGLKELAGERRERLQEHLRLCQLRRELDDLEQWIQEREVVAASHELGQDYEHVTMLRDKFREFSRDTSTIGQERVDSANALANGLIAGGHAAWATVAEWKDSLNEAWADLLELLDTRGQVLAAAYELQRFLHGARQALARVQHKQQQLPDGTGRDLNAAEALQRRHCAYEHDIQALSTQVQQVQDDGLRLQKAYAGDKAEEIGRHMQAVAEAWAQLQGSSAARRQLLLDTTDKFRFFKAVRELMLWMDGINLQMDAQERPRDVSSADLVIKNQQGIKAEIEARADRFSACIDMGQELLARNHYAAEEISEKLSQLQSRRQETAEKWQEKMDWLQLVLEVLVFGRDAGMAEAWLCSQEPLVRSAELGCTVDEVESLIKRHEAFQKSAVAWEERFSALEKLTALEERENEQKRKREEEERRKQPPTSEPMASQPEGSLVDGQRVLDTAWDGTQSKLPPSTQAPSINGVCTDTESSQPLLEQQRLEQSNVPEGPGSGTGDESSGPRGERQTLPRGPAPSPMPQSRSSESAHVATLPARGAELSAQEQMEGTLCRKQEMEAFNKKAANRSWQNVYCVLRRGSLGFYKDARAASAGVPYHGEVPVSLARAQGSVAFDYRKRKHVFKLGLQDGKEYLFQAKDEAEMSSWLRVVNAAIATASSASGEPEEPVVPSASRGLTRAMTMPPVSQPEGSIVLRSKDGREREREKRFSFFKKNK
Procedure: as §2, §3

[10] = target: T6, myc-tagged full-length GTRAP4-41; test: co-immunoprecipitation from transfected HEK 293T cells

B1: GTRAP3-18 (glutamate transporter EAAC1 associated protein), full-length (other)
chain: MDVNLAPLRAWDDFFPGSDRFARPDFRDISKWNNRVVSNLLYYQTNYLVVAAMMISVVGFLSPFNMILGGIIVVLVFTGFVWAAHNKDILRRMKKQYPTAFVMVVMLASYFLISMFGGVMVFVFGITFPLLLMFIHASLRLRNLKNKLENKMEGIGLKKTPMGIILDALEQQEDSINKFADYISKARE
notes: Used for native GTRAP3-18 of rat brain and tissue homogenates, for 'purified GTRAP3-18 protein' and for GTRAP3-18 expressed where no tag is stated; also called rat JWA protein homologue
binding result [1]: no binding | binding result [2]: no binding | binding result [3]: no binding | binding result [4]: binds

B2: amino-terminus c-myc tagged GTRAP3-18 (other)
chain: MDVNLAPLRAWDDFFPGSDRFARPDFRDISKWNNRVVSNLLYYQTNYLVVAAMMISVVGFLSPFNMILGGIIVVLVFTGFVWAAHNKDILRRMKKQYPTAFVMVVMLASYFLISMFGGVMVFVFGITFPLLLMFIHASLRLRNLKNKLENKMEGIGLKKTPMGIILDALEQQEDSINKFADYISKARE
notes: Expressed in HEK293 (also COS-7 and C6 glioma) cells; also called c-myc-GTRAP3-18; not shown: c-myc tag at the amino-terminus
binding result [5]: no binding | binding result [6]: no binding

B3: [35S]-methionine labelled GTRAP3-18 made by in vitro transcription and translation (other)
chain: MDVNLAPLRAWDDFFPGSDRFARPDFRDISKWNNRVVSNLLYYQTNYLVVAAMMISVVGFLSPFNMILGGIIVVLVFTGFVWAAHNKDILRRMKKQYPTAFVMVVMLASYFLISMFGGVMVFVFGITFPLLLMFIHASLRLRNLKNKLENKMEGIGLKKTPMGIILDALEQQEDSINKFADYISKARE
modifications: labeled with [35S]-methionine
notes: also called [35S]-labeled GTRAP3-18 protein
binding result [7]: no binding

B4: GST-EAAT4 fusion protein (full-length EAAT4 in pGEX-6P-1) (other, UniProt O35921 1-561, looked up)
chain: MSSHGNSLFLRESGAGGGCLQGLQDSLQQRALRTRLRLQTMTREHVRRFLRRNAFILLTVSAVIIGVSLAFALRPYQLTYRQIKYFSFPGELLMRMLQMLVLPLIVSSRVTGMASLDNKATGRMGMRAAVYYMVTTVIAVFIGILMVTIIHPGKGSKEGLHREGRIETVPTADAFMDLVRNMFPPNLVEACFKQFKTQYSTRVVTRTIVRTDNGSELGASISPPSSAENETSILENVTRALGTLQEVISFEETVPVPGSANGINALGLVVFSVAFGLVIGGMKHKGRVLRDFFDSLNEAIMRLVGIIIWYAPVGILFLIAGKILEMEDMAVLGGQLGMYTLTVIVGLFLHAGGVLPLIYFLVTHRNPFPFIGGILQALITAMGTSSSSATLPITFRCLEEGLGVDRRITRFVLPVGATVNMDGTALYEALAAIFIAQVNNYELNLGQITTISITATAASVGAAGIPQAGLVTMVIVLTSVGLPTEDITLIIAVDWFLDRLRTMTNVLGDSIGAAVIEHLSQRELELQEAELTLPSLGKPYKSLMAQAKGASRGRGGNESVM
notes: mature; Made in BL21 cells, immobilized on glutathione-Sepharose-4B; not shown: glutathione S-transferase of vector pGEX-6P-1 (Pharmacia)
binding result [8]: binds | binding result [9]: binds

B5
binding result [10]: no binding
